Molecular target: purified recombinant cathepsin A (CTSA) (human) (UniProt P10619)
Sequence (P10619 29-480): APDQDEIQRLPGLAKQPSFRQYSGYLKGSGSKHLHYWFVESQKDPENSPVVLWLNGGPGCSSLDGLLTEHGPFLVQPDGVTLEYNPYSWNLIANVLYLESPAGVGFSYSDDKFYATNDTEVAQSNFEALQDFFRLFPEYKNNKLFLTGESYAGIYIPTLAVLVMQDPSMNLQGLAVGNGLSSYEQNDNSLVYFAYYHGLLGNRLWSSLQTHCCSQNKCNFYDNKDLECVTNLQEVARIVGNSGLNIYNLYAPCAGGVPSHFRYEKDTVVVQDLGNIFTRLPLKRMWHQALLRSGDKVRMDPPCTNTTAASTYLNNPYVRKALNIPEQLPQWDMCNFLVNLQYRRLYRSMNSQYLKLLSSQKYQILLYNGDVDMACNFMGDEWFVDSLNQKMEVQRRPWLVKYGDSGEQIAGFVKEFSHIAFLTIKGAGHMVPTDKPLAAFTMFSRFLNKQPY

NEU1 enzymatic activity (moles of substrate/moles of NEU1/sec) of recombinant NEU1 incubated with CTSA; fold reduction by high HS concentrations (≥0.3 mg/mL): 100 fold
Substance: purified recombinant NEU1 (from UniProt Q99519 48-415) (enzyme)
